Source: patent US20150344580A1

What was measured:
[1] = biological target: human chemokine receptor CCR7 (UniProt P32248); assay: flow cytometry, human CCR7 cells (summary table)
[2] = biological target: human CCR7-CHO cells (UniProt P32248); assay: FACS binding to CCR7-CHO cells
[3] = biological target: CCR7 (CCL-AAT) (UniProt P32248); assay: cell binding; CLL-AAT cells
[4] = biological target: CCR7 (JVM-13) (UniProt P32248); assay: cell binding; JVM-13 cells
[5] = biological target: human chemokine receptor CCR7 (UniProt P32248); assay: cell-based or functional assay
[6] = biological target: mouse CCR7 (mouse) (UniProt P47774); assay: flow cytometry, mouse CCR7 cells (summary table)
Chain of mouse CCR7 (mouse) (P47774 25-378): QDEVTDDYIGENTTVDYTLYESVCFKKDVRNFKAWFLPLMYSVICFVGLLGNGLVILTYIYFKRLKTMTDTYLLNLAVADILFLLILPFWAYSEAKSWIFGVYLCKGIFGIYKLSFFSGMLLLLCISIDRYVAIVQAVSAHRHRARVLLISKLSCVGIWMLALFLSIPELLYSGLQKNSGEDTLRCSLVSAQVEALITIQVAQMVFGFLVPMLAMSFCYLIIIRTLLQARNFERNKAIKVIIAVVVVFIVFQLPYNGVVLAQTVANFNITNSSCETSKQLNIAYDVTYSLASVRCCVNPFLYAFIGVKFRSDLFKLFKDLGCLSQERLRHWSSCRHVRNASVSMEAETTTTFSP

Chain of human chemokine receptor CCR7 (P32248 25-378 limits assumed): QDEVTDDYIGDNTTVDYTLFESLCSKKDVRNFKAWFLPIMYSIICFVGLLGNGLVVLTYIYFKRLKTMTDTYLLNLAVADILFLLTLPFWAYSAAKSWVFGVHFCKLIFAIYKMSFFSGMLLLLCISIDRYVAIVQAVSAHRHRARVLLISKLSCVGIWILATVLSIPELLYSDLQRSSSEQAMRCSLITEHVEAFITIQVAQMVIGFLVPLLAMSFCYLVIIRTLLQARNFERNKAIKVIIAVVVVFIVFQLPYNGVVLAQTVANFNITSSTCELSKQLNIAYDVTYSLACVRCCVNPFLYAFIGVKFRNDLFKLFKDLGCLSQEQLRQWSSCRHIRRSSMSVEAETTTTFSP
Chain of human CCR7-CHO cells (P32248 25-378): as the sequence (P32248 25-378 limits assumed) above
Chain of CCR7 (CCL-AAT) (P32248 25-378): as the sequence (P32248 25-378 limits assumed) above
Chain of CCR7 (JVM-13) (P32248 25-378): as the sequence (P32248 25-378 limits assumed) above

## IgG 3D12 (eBioscience), anti-human CCR7 control (antibody)
[1]
  EC50: 3.4 nM

## IgG 3D12 eBioscience
[2]
  EC50: 3.2 nM

## IgG 150503 R&D Systems
[2]
  EC50: 5.9 nM

## MAB197
[3]
  Kd: 27 nM
[4]
  Kd: 20 nM

## Mouse monoclonal IgG2A anti-human CCR7, clone 150503 (R&D Systems MAB197) (antibody)
[1]
  EC50: 6.9 nM
[5]
  IC50 of inhibition of Ca-flux induced by 15 nM CCL19, Chem-1 CCR7 human cells: 10 nM
  inhibition of chemotaxis of CLL-AAT cells toward 30 nM CCL19, 500 nM IgG: 60%

## Rat IgG2A anti-mouse CCR7, clone 4B12 (R&D Systems MAB3477) (antibody)
[6]
  EC50: 73.5 nM
